Measured values as given in the nanobody polyreactivity screen of Harvey et al. (2022).

Test: yeast display, Sf9 membrane polyspecificity reagent, FACS + sequencing; frameworks hold sequencing errors
Outline: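 Synthetic nanobody libraries on Saccharomyces cerevisiae BJ5465 were galactose-induced for 36–48 hours, stained 1 hour at 4 °C with 10% biotinylated, detergent-solubilized Sf9 membrane reagent and enriched on streptavidin microbeads. FACS then separated cells into low and high (top ~1%) gates by anti-HA (expression) and streptavidin (reagent binding) fluorescence. Genes were colony-PCR amplified, MiSeq 2 × 250 sequenced and CDR-length filtered. A clone's polyreactivity label is that of its gate of origin.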

Row | Sequence | polyreactivity (PSR sort gate)
1 | QVQLVESGGGLVQAGGSLRLSCAASGSIFNVYAMGWYRQAPGKERELVAAISDGDGSTFYADSVKGRFTISRDNAKNTVYLQMNSLKPEDTAVYYCAKDYRWDRKFDYWGQGTQVTVSS | low polyreactivity
2 | QVQLVESGGGLVQAGGSLRLSCAASGSIFNYNAMGWYRPAPGKERELVAALNSGGSTNYADSVKGRFTISRDNAKNTVYLQMNSLKPEDPAVYYCAADNYSQGVPYDYWGQGTQVTVSS | low polyreactivity
3 | QVQLVESGGGLVQAGGSLRLSCAASGSIFNYTMGWYRQGPAQERQLVAVISRSGGRTYYADSVKGRFTISRDNAKNTVYLQMNSLKPEDTAVYYCATDGHNGYYGRYDYWGHGTQVTVSS | high polyreactivity
4 | QVQLVESGGGLVQAGGSLRLSCAASGSIFNYYAMGCYRQAPGKERELVAAIETTGGSTYYADSVKGRFTNSRDNAKNTVYLQMNSLKPEDTAVYYCAATWGKPWYYEYDYWGQGTQVTVSS | low polyreactivity
5 | QVQLVESGGGLVQAGGSLRLSCAASGSIFNYYAMGWNRQAPVKETEFVADISGSGSSTYYADSVKGRFTISRDNAKNTVYLQMNSLKPEDTAVYYCIAEYYWGVGYYPYSDYGYWGQGTQVTVSS | low polyreactivity
6 | QVQLVESGGGLVQAGGSLRLSCAASGSIFNYYAMGWYRQAPGKERELVAGITTSGGSTYYADSVKGRFTISRDNAKNTVYLQMNSLKPEDTAVYYWAAYDYISSTYFLDDYWGQGTQVTVSS | low polyreactivity
7 | QVQLVESGGGLVQAGGSLRLSCAASGSIFNYYVMGWYRQAPGKERELVAGIRWNGGSTYYADSVKGRFTISRDNAKNTVYLQMNSLKPEDTAVYDCAAQAWWGYYSRGPMDYWGQGTQVTVSS | low polyreactivity
8 | QVQLVESGGGLVQAGGSLRLSCAASGSIFPAIAKGWYRQAPGTERELVAAISVSGARTYYADSVKGRFTISRDNAKNTVYLQMNSLKPEDTAVYYCAARAAGSQHDYWGQGTQVTVSS | high polyreactivity
9 | QVQLVESGGGLVQAGGSLRLSCAASGSIFPANAMGWYRQAPGKERELVAAINRDGITNYADSVKGRFTISRDNAKNTVYLQMNSLKPEDTAVYYCAAEFAWQWWEYGYWGQGTQVTVSS | low polyreactivity
10 | QVQLVESGGGLVQAGGSLRLSCAASGSIFPAYAMGWYRQAPGKERELVAASTDRGGSTSYADSVKGRFTISRDNAKNTVYLHKNSLKPEDT | low polyreactivity
11 | QVQLVESGGGLVQAGGSLRLSCAASGSIFPAYAMGWYRQAPGKERELVASITGSGGSTYYADSVKGRFTISRDIAKNTVYLQMNSLKPEDTAVYYCNARYYVYSATVDRYYHFYYWGQGTQVTVSS | high polyreactivity
12 | QVQLVESGGGLVQAGGSLRLSCAASGSIFPDYAMGRYRQAPGKERELVAGISSNSGSTYYADSVKGRFTISRDNAKNTVYLQMNSLKPEDTAVYYCAKDSFWRDTGYTDGDYWGQGTKVTVSS | low polyreactivity
13 | QVQLVESGGGLVQAGGSLRLSCAASGSIFPDYDMGWYRQAPGKERELVAAISSSGDSTYYADSVKGRFTISRDIAKNTVYLQMNSLKPEDTAVYYCAVDGTRSTSNGSEFTGYNYWGQGTQVTVSS | low polyreactivity
14 | QVQLVESGGGLVQAGGSLRLSCAASGSIFPDYTMGWYRQAPGKERELVAAITRSGDSTYYADSVKGRFTISRDNAKNTVYLQMNSLKPEDTAVYYCARDAFSVSDFSYASIEYDYWGQGTQVTVSS | low polyreactivity
15 | QVQLVESGGGLVQAGGSLRLSCAASGSIFPEYAMGWYRQAPGKERELVASISSGGSSTYYADSVKGRFTISRDNAKNTVYLQMNSLKPEDTAVYYCARRRSYKRRFDYWGQGTQVTVSS | low polyreactivity
16 | QVQLVESGGGLVQAGGSLRLSCAASGSIFPFYAMGWYRQAPGKERELVAAITRSDGSTYYADSVKGRFTISRDNAKNTVYLQMNSLKPEDTAVYYCADYGYWGQGTQVTVSS | low polyreactivity
17 | QVQLVESGGGLVQAGGSLRLSCAASGSIFPGNAIGSYRQAPGKERELDARITVSGGTTYFADSVKGRFTISRDNAKNTVYLQMNSLKPEDTAVYYCAADGPSPFIQGYAKGDYWGQGTQVTVSW | low polyreactivity
18 | QVQLVESGGGLVQAGGSLRLSCAASGSIFPGNAMGWSRQAPGKEREFVAAISWSGGSTYADSVKGRFTISRDNAKNTVYLQINSVKPEDTAVYYCAAVRRYLKAAYGYWGQGTKVTVSS | low polyreactivity
19 | QVQLVESGGGLVQAGGSLRLSCAASGSIFPGNAMGWYRQAPGKERELVAAIRGGGSTNYADSVKGRFTISRDNAKNTVYLQMNSLKPEDTAVYYCNADPFTGYDYWGQGTQVTVSS | low polyreactivity
20 | QVQLVESGGGLVQAGGSLRLSCAASGSIFPGNAMGWYRQAPGKERELVAVIDFSGASTYYADSVKGRFTISRDNAKNTVYLQMNSLKPEDTADYWGQGSQVTVSS | low polyreactivity
21 | QVQLVESGGGLVQAGGSLRLSCAASGSIFPGNTMGWYRQAPGKERELVAGIDKNGGRTYYADSVKGRFTISRDNAKNTVYLQMNSLKPEDTAVYYCAADTWVFRRAFWTKYEYWGQGTQVTVSS | low polyreactivity
22 | QVQLVESGGGLVQAGGSLRLSCAASGSIFPGYALGWYRQAPGKERELVATIRWSSGSRTNYADSVKGRFTISRENAKKTVYLQMNSLKPEDSAVYYCAAGSRRYKYDYWGQGTQVTVSS | high polyreactivity

Row | Sequence | polyreactivity (PSR sort gate)
23 | QVQLVESGGGLVQAGGSLRLSCAASGSIFPGYAMGWSRQAPGKERELVAAISTSGGSTYADSVKGRFTISRDNAKNTVYLQMNSLKPEDTAVYYCAATYTYTSPVYYSLDGPWPYDYWGQGTQVTVSS | low polyreactivity
24 | QVQLVESGGGLVQAGGSLRLSCAASGSIFPHYAMGWYREAPGKERELVAAISRGGSTNYADSVKGRFTISRDNAKNTVYLQMNSLKPEDTAVYYCNALRYYSRFQYAVAYRYDYWGQGTQVTVSS | high polyreactivity
25 | QVQLVESGGGLVQAGGSLRLSCAASGSIFPIYAMGRYRQAPGKERELVAAIDSSGGSTYYADSVKGRFTISRDNAKNTVYLQMNSLKPEDTAVYYCAADFGSKSTPYDYWGQGTQVTVSS | low polyreactivity
26 | QVQLVESGGGLVQAGGSLRLSCAASGSIFPIYAMGWDRQAPGKERELVASINISGGRTYYADSVKGRFTISRDNAKNTVYLQMNSLKPEDSAVYYCAAEWYTTSEYDYWGQGTQVTVSS | low polyreactivity
27 | QVQLVESGGGLVQAGGSLRLSCAASGSIFPIYAMGWYRQATGKERELVAAINSGGGTNYADSVKGRFTISRDNAKNTVYLQMNSLKPEDTAVYYCAKSRYDYTKTEGGYWGQGTQVTVSS | low polyreactivity
28 | QVQLVESGGGLVQAGGSLRLSCAASGSIFPKYAMGWYRQAPGKEREFVAAISRRGGSTYYAYSVKGRFTISRDNAKNTVYLQMNSLKPEDTAVYYCSVKIPTYPIFGRYGYWGQGTQVTVSS | high polyreactivity
29 | QVQLVESGGGLVQAGGSLRLSCAASGSIFPKYAMGWYRQAPGKERELVATISYRGGRTYYADSVKGRFTISRDNAKNTVYLQMYSLKPEDTAVYYCATRYPYYPFYVGIYELDYWGQGTQVTVSS | low polyreactivity
30 | QVQLVESGGGLVQAGGSLRLSCAASGSIFPLYAMGWYRQAPGKERELVAAITSNGGRTYYADSVKGRFTISRDNAKNTVYLQMNSLKPEDTAVYYCNKYLLDYRRGRSDYWGQGTQVTVSS | low polyreactivity
31 | QVQLVESGGGLVQAGGSLRLSCAASGSIFPLYAMGWYRQAPGKERELVAGINGNDGSTYYADSVKGRFTISRDYEKNTVYLQRNRLKPEDTAVYYCAARGSTAHPHYPFNYWGQGTQVTVSS | low polyreactivity
32 | QVQLVESGGGLVQAGGSLRLSCAASGSIFPPYAMGWYRQAPGKERELVATITIRGGSTYYADSVKGRFTISRDNAKNSVYLQMNSLKPEDTAVYYCAADYTKYYRRYYYWGQGTQVTVSS | high polyreactivity
33 | QVQLVESGGGLVQAGGSLRLSCAASGSIFPQYAMGWYRQAPGKERELVAAISWSGGRTYYADSVKGRFTISRDNAKNTVYIQMNSLKPEDTAVYYCNRLYRRWYGREDDYWGQGTQVTVSS | high polyreactivity
34 | QVQLVESGGGLVQAGGSLRLSCAASGSIFPQYAMGWYRQAPGKERELVAVISWSGGRTYYADSVKGRFTISRDNAKNTVYLQMNSLKPEDTAVYYCAAKYWYQRYPQSSYTRYYWGQGTQVTVSS | high polyreactivity
35 | QVQLVESGGGLVQAGGSLRLSCAASGSIFPRNAMGWSRQAPGKEMELVATITSGTSTNYADSVKGRFTISRDNAKNTVYLQMNSLKPEDTAVYYCAADHYYTGTTYNYWGQGTQVTVSS | low polyreactivity
36 | QVQLVESGGGLVQAGGSLRLSCAASGSIFPRNAMGWYRQAPGKERELVAAISWRGGRTYYADSVKGRFTISRDNAKKTVYLQMNSLNPEDTAVYYCSEQYSRWKRGEYYLSSSYGYWGQGTQVTVSS | high polyreactivity
37 | QVQLVESGGGLVQAGGSLRLSCAASGSIFPRNAMGWYRQAPGKERELVAAITSSGGTTYYADSVKGRFTISRDNAKNTVYLQMISLKPEDTAVYYCNAAYPYSSVGRDYWGQGTQVTVSS | high polyreactivity
38 | QVQLVESGGGLVQAGGSLRLSCAASGSIFPRYAMGWYRQAPGKERELVAAITGSGSSTYYADSVKGRFTISRDNAKNTVYLQMNSLKPEDTAVYYCADRFIWGYWGVGYYYWGQGTQVTVSS | low polyreactivity
39 | QVQLVESGGGLVQAGGSLRLSCAASGSIFPRYAMGWYRQAPGKERELVAAITGSGSSTYYADSVKGRFTISRDNAKNTVYLQMNSLKPEDTAVYYCAGVYTYPLGYYHYTYDYWGQGTQVTVSS | low polyreactivity
40 | QVQLVESGGGLVQAGGSLRLSCAASGSIFPRYAMGWYRQAPGKERELVAAITSSAGSTYYADSVKGRFTISRDNAKNTVYLQMNSLKPEDTAVYYCAASGPWSYWYDYWGQGTQVTVSS | low polyreactivity
41 | QVQLVESGGGLVQAGGSLRLSCAASGSIFPRYVMAWYRQAPGKERELVAAISGSGGSTYYADSVKGRFTISRDNAKNTVYFQMNSLIPEDTAVYYCNKLRRRVNRDIDDYWGQGTQVTVSS | high polyreactivity
42 | QVQLVESGGGLVQAGGSLRLSCAASGSIFPSNAMGWYRQAPGKERELVAAISSSGGRTYYADSVKGRFTISRDNAKNTVYLQMNSLKPEDTAVYYCNRVYFKSRQGQMYYWGQGTQVTVSS | high polyreactivity
43 | QVQLVESGGGLVQAGGSLRLSCAASGSIFPSNAMGWYRQAPGKERELVAAISWSGDITYYADSVKGRFTISRDNAKNTVYLQLNSLKPEDTAVYYCAADTPIAGYWYNYWGQGTQVTVSS | low polyreactivity
